Reference: the DeepSol protein solubility set

experiment: soluble on expression in E. coli; label from the status in PepcDB or PDB records

Row | Sequence | soluble on expression in E. coli
1 | MSLHIHILGICGTFMGGVAMLARQLGHKVTGSDANVYPPMSTMLEAQGIEIIEGFDPVQLEPKPDLVVIGNAMSRGNPCVEYVLNHNLRYTSGPQWLQDFLLHDRWVIAVSGTHGKTTTSSMIAWVLEHCGYQPGFLVGGVLGNFGISARLGESMFFVVEADEYDSAFFDKRSKFVHYHPRTLVMNNLEFDHADIFDNLEAIKRQFHHLVRTVPGNGRILAPKQDEALADVLQRGCWSETEFSGEQGEWQAEKITADGSQFHVLLKGERVGQVNWSLVGDHNVSNALMAIAAARHVGVAPELACEALGLFVNTKRRLELKGEINGVTVYDDFAHHPTAIELTLGGLRNKVGDKKIIAVLEPRSATMKLGVHKETLAASLHSADSVYLYQPSNIPWSVEEVAKQCQQPAQVSANMDEFVAMIAKEAQAGDQILVMSNGGFEGIHGKLLAALQQKEGHHHHHH | soluble
2 | MSAVLKKNKPFSILLMGTDTGALGRSDVGRTDTLMVATINPTKETAYLTSIPRDTRVTVGSGVNASVQKINAAYTIGGSKTAVKTVENLLDIPIDFYAIVNMGGLEKMVDAVGGVDVTPPLTFHYGAANVTKGKKTHLNGKQALAYSRMRHEDPLGDYGRQKRQRQVLQKMVVKAAGLSSITRYQTILKSLNGNLKTDLTFDDLMQIRAKYGDASHHIKSETLQGQDAMIDGLSYQVPTTSELKKVSNHIRKTLELANTTKFTTDADTDTTGSTAYGSSDNSGYGYLEHHHHHH | soluble
3 | MGHHHHHHSHMRKLVIPKYYGRPSIGLALFGCTNRPFYHVCVFPDRALGRRYEGNILEQVGTFDPLPNQKNEKLVALNFGRLKYWIGERNAHISVPVLELLGERRNCLSGLFPIHPKSFIRAKDNRALIADQQLKVAAEAAEAEKVAQEQASTGAAATSHPQ | soluble
4 | MFDFNDSMVSNAIIKVVGVGGGGGNAVQHMCEEVSDVEFFALNTDGQALSKSKVQNILQIGTNLTKGLGAGANPEIGKRAATEDRAKIEQLLEGADMVFITAGMGGGTGTGGAPVVAEVAKEMGILTVAVVTKPFPFEGPRRMKAAEQGIDELTKHVDSIITVPNEKLLSVLGKGASLIDAFNAANDVLGNAVKGVSELITKPGLINVDFADVRAVMTNMGLAMMGMGEASGENRAREAAEAAISSPLLEDINLDGAKGVIVNITAGMDMSIGEFEEVGEVIRSFISDEAIVIAGTVIDPDMSDSMKVTVVVTGIEKVAMKRGFGVEKTSSLQQSASSFSNKTSAPFLRKETEVVTGASNAPKTDSDDVNKSDIPSFLRRR | not soluble
5 | MGSDKIHHHHHHMAVECIKDKVTRYPERASYSDEDLVAMLDRNFTCTVSFIDGGIPYAIPMMLASEGKTIYLHGSMKSRIYGILKTGQLIAISLLEINGIVLAKEIKNNSINYVSALIFGRPYEIDDTEKKIEVFRLLTEKLVKGRRDNSIKPSYEDLNGVFVFAVKPETFSMKARTGPPHDTSTDDIWSGVLPIQHTISEAGENAPEYVKSLYGKRIFI | not soluble
6 | MTDRKIRQISALLIEVYNGIMQVEDKYLRTTQFRDITVKEVHTIDAITMYDYKTTTAVARQLRLSPGTVTASIDKLVRKGYVVRLQSKDDQRVIRLGLTRRGRLIYRAHQSFHRQMTESFLNGMDPEQVDIIEHSLLNLQTFLQIADEKGDSNEND | not soluble
7 | MSLMKCLLVSSVEGYSGKSGIIIALGLKLREMGYEVGYFKALGVNTVKVGDRAVEEDSLITAKILGVEEDVCPVVLDRPYIDFATSVDPVVLRKAVLDRFTEVSEGKDVVIVEGSQNYRTGVAVGIDDASVAKMLSAKVLLVGKYVNDFVVDEVLAAKSAFGTMLEKVVFNQVSGYKMSYIEGIARKVLNEAGLDIVGAIPRNPVLAGLSVEEIREAVSGEYLIEPREEKMVEQVVIGAMSPQSALRYLREARNAALVTGGDRSDLLLTALEMPNVRCLILTGNLEPVQLVLTKAEERGVPVILTGHDTLTAVSRLESVFGRTRIRGEPKVGIMRELFESHVNVKTIIEYLGLDEGHHHHHH | soluble
8 | MASEMKFAWLLAPDTYWDEKKTFITAALESGIDHIVDTADSGRIKKLGNLTLISPDEDADIVLVGRDGEGDGTLELPETLEYSRDIEMASELSESGRQVAAYVEIRSKAHEELARRLGRVVDYLILVGEDWKIIPLENIIADLQEEDVKLIAAVADVDEARVALETLEHGTDGVLIEPADISQIKDIAALLENIESETYELKPATITRIEPIGSGDRVCVDTCSIMGIGEGMLVGSYSQGLFLVHSESLESEYVASRPFRVNAGPVQAYVMVPGGRTRYLSELETGDEVIIVDRDGRSRSAIVGRVKIEKRPLMLVEAEYEGMKVRTLLQNAETIRLVNDKGEPVSVSELGEGDRVLVYFDESARHFGMAIKETIIEKLEHHHHHH | soluble
